Measurements reported in patent US20240368285A1 (HEFEI TG IMMUNOPHARMA, published 2024).

T1: MICA on human tumor cells (A-375, A549, HCT-15, MDA-MB-231) (human, UniProt Q29983 24-383)
T1 construct: whole, on cells
T1 sequence (looked up): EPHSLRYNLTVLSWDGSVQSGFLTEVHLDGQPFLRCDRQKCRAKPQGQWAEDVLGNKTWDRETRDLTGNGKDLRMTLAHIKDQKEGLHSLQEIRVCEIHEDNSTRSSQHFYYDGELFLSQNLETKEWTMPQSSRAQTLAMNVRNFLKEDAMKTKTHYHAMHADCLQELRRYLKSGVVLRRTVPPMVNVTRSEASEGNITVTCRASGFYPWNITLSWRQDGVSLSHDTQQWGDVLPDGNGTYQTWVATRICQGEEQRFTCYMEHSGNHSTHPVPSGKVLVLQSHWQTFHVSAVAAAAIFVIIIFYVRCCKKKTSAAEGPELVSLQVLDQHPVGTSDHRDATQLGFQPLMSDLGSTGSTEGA


What was measured:
MICA002α3-Fc = target: T2, MICA002α3-Fc (human); test: ELISA on coated MICA*002 α3-Fc (1 µg/ml), HRP anti-human Fab secondary, OD450
T2 construct: Produced in the Applicant's laboratory; also called MICA*002-Fc; domain α3 of MICA-002 Fc fusion protein

MICA005α3-Fc = target: T3, MICA005α3-Fc (human); test: ELISA on coated MICA*005 α3-Fc (1 µg/ml), HRP anti-human Fab secondary, OD450
T3 construct: also called MICA*005-Fc; domain α3 of MICA-005 Fc fusion protein

MICA008α3-Fc = target: T4, MICA008α3-Fc (human); test: ELISA on coated MICA*008 α3-Fc (1 µg/ml), HRP anti-human Fab secondary, OD450
T4 construct: also called MICA*008-Fc; domain α3 of MICA-008 Fc fusion protein

[1] = target: T1, MICA on human tumor cells (A-375, A549, …); test: flow cytometry on HCT-15 cells, Alexa-647 goat anti-human secondary, % binding ratio
Description: (§1) (2) Tumor cells were diluted to a density of 2×10⁶/mL with PBS and added into a 1.5 ml EP tube in a volume of 100 l/tube. 10 l/tube of goat serum was added into the EP tube; and blocking was conducted at 4° C. for 30 min. […] The tube was incubated at 4° C. for 30 min. 1 mL of PBS was added into the EP tube, and centrifugation was conducted 4° C. at a rate of 3,500 rpm for 5 min. The supernatant was removed. Then, the EP tube was washed once with the PBS, and the supernatant was removed after centrifugation. The cells were resuspended with PBS in a volume of 100 l/tube. An Alexa-647 labeled goat anti-human secondary antibody (purchased from Jackson lab) was added into the tube in a volume of 1 l/tube, and the tube was incubated in the dark at 4° C. for 30 min. The tube was washed twice with PBS, and the supernatant was removed after centrifugation. The cells were resuspended with the PBS in a volume of 200 l/tube, and detection was conducted by a flow cytometer. The results are as shown in FIG. 17A and FIG. 17B, FIG. 18A and FIG. 18B, FIG. 19A and FIG. 19B, and FIG. 20A and FIG. 20B.

MICA004α3-Fc = target: T5, MICA004α3-Fc (human); test: ELISA on coated MICA*004 α3-Fc (1 µg/ml), HRP anti-human Fab secondary, OD450
T5 construct: also called MICA*004-Fc; domain α3 of MICA-004 Fc fusion protein

[2] = target: T1, MICA on human tumor cells (A-375, A549, …); test: flow cytometry on A-549 cells, Alexa-647 goat anti-human secondary, % binding ratio
Description: as §1

[3] = target: T1, MICA on human tumor cells (A-375, A549, …); test: flow cytometry on MDA-MB-231 cells, Alexa-647 goat anti-human secondary, % binding ratio
Description: as §1

MICB001α3-Fc = target: T6, MICB001α3-Fc; test: ELISA on coated MICB*001 α3-Fc (1 µg/ml), HRP anti-human Fab secondary, OD450
T6 construct: also called MICB*001-Fc; domain α3 of MICB-001 Fc fusion protein

MICB005α3-Fc = target: T7, MICB005α3-Fc; test: ELISA on coated MICB*005 α3-Fc (1 µg/ml), HRP anti-human Fab secondary, OD450
T7 construct: also called MICB*005-Fc; domain α3 of MICB-005 Fc fusion protein

[4] = target: T1, MICA on human tumor cells (A-375, A549, …); test: flow cytometry competition on HCT-15 cells; competitor: Biotin-h5A1002, detected with Alexa-647 streptavidin; % binding ratio of Biotin-h5A1002
Description: HCT-15 cells were diluted to a density of 2×10⁶/mL with PBS and added into a 1.5 ml EP tube in a volume of 100 l/tube. 10 l/tube of goat serum was added into the EP tube, and blocking was conducted at 4° C. for 30 min. […] The tube was incubated at 4° C. for 30 min. A biotin-labeled affinity maturation antibody Biotin-h5A1002 (having a heavy chain sequence as set forth in SEQ ID NO: 13 and a light chain sequence as set forth in SEQ ID NO: 14) was added. The tube was incubated at 4° C. for 30 min. 1 mL of PBS was added into the EP tube, and centrifugation was conducted 4° C. at a rate of 3,500 rpm for 5 min. The supernatant was removed. The EP tube was washed once with the PBS, and the supernatant was removed after centrifugation. The cells were resuspended with PBS in a volume of 100 l/tube. An Alexa-647 labeled Streptavidin secondary antibody (purchased from Biolegend) was added into the tube in a volume of 1 l/tube, and the tube was incubated in the dark at 4° C. for 30 min. The tube was washed twice with PBS, and the supernatant was removed after centrifugation. The cells were resuspended with the PBS in a volume of 200 μl/tube, and detection was conducted by a flow cytometer.

[5] = target: T1, MICA on human tumor cells (A-375, A549, …); test: flow cytometry on A-375 cells, Alexa-647 goat anti-human secondary, % binding ratio
Description: as §1

T6 sequence (chain, as listed by the source limits assumed): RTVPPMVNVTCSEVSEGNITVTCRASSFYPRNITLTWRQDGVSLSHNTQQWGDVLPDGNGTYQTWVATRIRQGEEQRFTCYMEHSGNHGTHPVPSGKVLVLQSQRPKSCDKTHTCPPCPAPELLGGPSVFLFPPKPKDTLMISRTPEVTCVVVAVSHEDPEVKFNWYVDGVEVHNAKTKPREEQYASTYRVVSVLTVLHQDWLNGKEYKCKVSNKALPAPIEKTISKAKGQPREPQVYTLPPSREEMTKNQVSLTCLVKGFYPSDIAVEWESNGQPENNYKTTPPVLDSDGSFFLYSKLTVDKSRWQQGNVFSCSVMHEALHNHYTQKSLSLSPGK
T2 sequence (chain, as listed by the source limits assumed): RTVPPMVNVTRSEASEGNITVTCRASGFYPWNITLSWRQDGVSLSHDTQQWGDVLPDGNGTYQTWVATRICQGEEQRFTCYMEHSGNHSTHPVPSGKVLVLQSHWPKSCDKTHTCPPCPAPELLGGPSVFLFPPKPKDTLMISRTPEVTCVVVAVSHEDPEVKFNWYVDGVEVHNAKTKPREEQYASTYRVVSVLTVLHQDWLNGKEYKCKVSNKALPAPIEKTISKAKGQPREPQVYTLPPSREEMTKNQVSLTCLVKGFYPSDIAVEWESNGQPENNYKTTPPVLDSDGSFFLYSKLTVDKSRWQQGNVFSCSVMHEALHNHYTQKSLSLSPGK
T3 sequence (chain, as listed by the source limits assumed): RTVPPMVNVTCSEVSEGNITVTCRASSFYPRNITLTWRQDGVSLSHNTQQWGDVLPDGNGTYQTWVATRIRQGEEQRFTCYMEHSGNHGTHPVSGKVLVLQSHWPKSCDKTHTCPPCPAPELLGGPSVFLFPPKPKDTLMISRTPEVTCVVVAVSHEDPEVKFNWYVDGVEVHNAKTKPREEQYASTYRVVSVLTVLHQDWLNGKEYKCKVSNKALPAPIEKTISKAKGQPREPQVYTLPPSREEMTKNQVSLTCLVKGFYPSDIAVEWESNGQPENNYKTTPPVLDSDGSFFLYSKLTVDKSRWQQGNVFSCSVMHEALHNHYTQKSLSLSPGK
T5 sequence (chain, as listed by the source limits assumed): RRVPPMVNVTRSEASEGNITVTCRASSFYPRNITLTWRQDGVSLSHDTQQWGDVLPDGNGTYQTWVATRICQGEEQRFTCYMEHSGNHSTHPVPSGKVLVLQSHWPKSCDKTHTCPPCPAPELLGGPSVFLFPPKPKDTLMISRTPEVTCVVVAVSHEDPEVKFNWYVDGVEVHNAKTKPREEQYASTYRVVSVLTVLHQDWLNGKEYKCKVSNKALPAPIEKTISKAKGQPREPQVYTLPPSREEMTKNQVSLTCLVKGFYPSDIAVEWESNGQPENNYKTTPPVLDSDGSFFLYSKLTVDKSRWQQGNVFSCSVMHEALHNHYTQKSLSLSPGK
T7 sequence (chain, as listed by the source limits assumed): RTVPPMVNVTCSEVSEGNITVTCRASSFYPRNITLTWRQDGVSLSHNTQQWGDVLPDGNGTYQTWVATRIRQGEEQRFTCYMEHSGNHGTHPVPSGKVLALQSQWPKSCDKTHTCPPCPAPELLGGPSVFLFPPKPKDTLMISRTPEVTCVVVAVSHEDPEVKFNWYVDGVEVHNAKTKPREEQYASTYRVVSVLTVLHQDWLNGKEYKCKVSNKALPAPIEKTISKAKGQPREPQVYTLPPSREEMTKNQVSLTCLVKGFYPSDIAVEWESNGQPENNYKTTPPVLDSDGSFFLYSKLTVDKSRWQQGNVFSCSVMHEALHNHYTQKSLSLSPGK
T4 sequence (chain, as listed by the source limits assumed): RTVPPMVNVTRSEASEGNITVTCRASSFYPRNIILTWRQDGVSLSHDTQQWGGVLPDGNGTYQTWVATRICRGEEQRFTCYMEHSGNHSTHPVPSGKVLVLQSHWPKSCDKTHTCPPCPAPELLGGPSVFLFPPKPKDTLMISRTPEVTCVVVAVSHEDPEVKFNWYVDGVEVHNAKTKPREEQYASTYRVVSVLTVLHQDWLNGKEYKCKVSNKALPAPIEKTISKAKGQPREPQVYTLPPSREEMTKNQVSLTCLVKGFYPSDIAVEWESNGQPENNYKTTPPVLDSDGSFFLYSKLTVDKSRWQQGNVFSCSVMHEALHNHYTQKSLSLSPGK

| EC50 (read off the curve) (MICA002α3-Fc) | EC50 (read off the curve) (MICA005α3-Fc) | EC50 (read off the curve) (MICA008α3-Fc) | EC50 (read off the curve) [1] | EC50 (read off the curve) (MICA004α3-Fc) | EC50 (read off the curve) [2] | EC50 (read off the curve) [3] | EC50 (read off the curve) (MICB001α3-Fc) | EC50 (read off the curve) (MICB005α3-Fc) | IC50 (read off the curve) [4] | EC50 (read off the curve) [5] | Binder |
| --- | --- | --- | --- | --- | --- | --- | --- | --- | --- | --- | --- |
| ~0.05 µg/mL | ~0.09 µg/mL | ~0.07 µg/mL | ~0.1 µg/mL | ~0.04 µg/mL | ~0.4 µg/mL | ~0.3 µg/mL | ~0.03 µg/mL | ~0.04 µg/mL | ~5 µg/mL | ~0.3 µg/mL | antibody 1D5V11 (Genentech) (antibody, human IgG1, kappa, V domains shown, also called homogeneous antibody 1D5V11) VH: EIQLVQSGAEVKKPGASVKVSCKASGYAFTSQNIYWVRQAPGQGLEWIGYIEPYNVVPMYNPKFKGRATLTVDKSTSTAYLELSSLRSEDTAVYYCARSGSSNFDYWGQGTLVTVSS VL: DIQLTQSPSSLSASVGDRVTITCSASSSISSHYLHWYQQKPGKSPKLLIYRTSNLASGVPSRFSGSGSGTDYTLTISSLQPEDFATYYCQQGSSLPLTFGQGTKVEIKR |
| ~0.07 µg/mL | ~0.2 µg/mL | ~0.1 µg/mL | ~0.3 µg/mL | ~0.04 µg/mL | ~0.7 µg/mL | ~0.7 µg/mL | ~0.05 µg/mL | ~0.04 µg/mL | ~4 µg/mL | ~0.7 µg/mL | antibody CLN-619 (Cullinan) (antibody, human IgG1, kappa, V domains shown, hIgG1 subtype) VH: QVQLVESGGGLVKPGGSLRLSCAASGFTFSNYAMSWIRQAPGKGLEWVSYISPGGDYIYYADSVKGRFTISRDNAKNSLYLQMNSLRAEDTAVYYCTTDRRHYGSYAMDYWGQGTLVTVSS VL: DIVMTQSPLSLPVTPGEPASISCRSSKSLLHSNLNTYLYWFLQKPGQSPQILIYRMSNLASGVPDRFSGSGSGTAFTLKISRVEAEDVGVYYCMQHLEYPFTFGPGTKLEIKR |
